This is an account of results in publication PMC11809415 (The Journal of Cell Biology, 2025).

The target in this experiment is F-actin (rabbit skeletal muscle α-actin filaments) (rabbit, UniProt P68135 1-377). Kind of experiment: co-sedimentation; 2 µM F-tractinopt-mCherry fusions incubated with F-actin at increasing concentrations for 5 min at room temperature, 120,000 g for 20 min at 4°C; supernatant and pellet on SDS-PAGE, densitometry; Kd by GraphPad Prism. The conditions noted are these: both partners purified.

B1: F-tractinopt–mCherry fusion (domain or fragment)
chain: APRRSVGELRLLFEARAASAA
notes: rat inositol 1,4,5-trisphosphate 3-kinase A; numbers count on: the 43-residue F-tractin peptide (peptide residue n = kinase residue n+9); source: E. coli BL21-CodonPlus(DE3)-RIPL, purified (Protino Ni-IDA resin)
In the case of B1, binding was put at a Kd of 8.5 ± 1.2 µM.
